Data on nine molecules can be found in patent US20210238304A1 (EISAI R AND D MANAGEMENT, published 2021).

Test [1] deals with T1, human mesothelin (recombinant, soluble) (human, UniProt Q13421 296-598). Briefly: SPR BIAcore, parental mAb captured, mesothelin analyte. A general note: In SPR one partner is held on a chip, and binding of the other changes the refractive index at the surface.
For test [2], the target named is T1, human mesothelin (recombinant, soluble). Briefly: SPR BIAcore, captured mAb, mesothelin analyte.
Test [3] addresses human mesothelin expressed on cells (human, UniProt Q13421 37-598). Briefly: cell-based or functional assay.
In test [4] the target is T2, rat mesothelin (rat, UniProt Q9ERA7 298-600, limits assumed).
T2 sequence (looked up): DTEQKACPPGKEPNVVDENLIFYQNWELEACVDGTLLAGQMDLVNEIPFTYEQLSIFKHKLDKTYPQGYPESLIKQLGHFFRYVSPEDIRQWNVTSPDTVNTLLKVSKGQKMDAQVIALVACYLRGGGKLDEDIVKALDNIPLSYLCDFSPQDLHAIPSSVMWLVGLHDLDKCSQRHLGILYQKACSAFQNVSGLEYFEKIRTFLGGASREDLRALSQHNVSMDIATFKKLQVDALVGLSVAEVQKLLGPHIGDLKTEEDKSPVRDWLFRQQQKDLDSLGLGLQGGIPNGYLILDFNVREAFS
Description: SPR BIAcore, captured mAb, mesothelin analyte. How it is done:
(§1) Binding affinity: Binding measurements were performed in HBS-P+ buffer on a BIAcore T-100 instrument. Antibodies were diluted to 1 μg/mL in HBS-P+. Samples were centrifuged at 14,000×g for 5 min at room temperature and then supernatants were transferred to a new 1.5 mL BIAcore tube and capped. […] Anti-human antibody capture chip was prepared according to the manufacturer's protocol using a CMS chip with immobilization wizard. Final capture antibody levels were 8000-9000RU, in HBS-P+.
(§2) Antibodies were captured on flow cells 2-4 by sequential injections of individual ligand solutions for 90 sec at 10 μL/min. Analyte injection was done in a single-cycle kinetics manner by sequential injections of analyte solutions from low to high concentration for 240 sec each at 30 μL/min. Detection was 2-1, 3-1, 4-1. Double-referencing was performed by a sequence of identical ligand capture injections, followed by 5 buffer-only injections for 240 sec each, dissociation for 1800 sec, and regeneration as above. All ligands were analyzed for binding to mesothelin in duplicate. Kinetic analysis was performed using BIAEvaluations software using a 1:1 Langmuir fitting model. On-rate, off-rate, and affinity constants were averaged from duplicate runs.

Test [5] concerns the target T3, human mesothelin (recombinant, soluble) (human, UniProt Q13421 296-598, limits assumed).
T3 construct: Analyte in BIAcore, coat in ELISA (CHO-MT40 mesothelin), biotinylated on Octet tips; also called MSLN; CHO-MT40 mesothelin
Briefly: SPR BIAcore T-100, captured mAb, mesothelin 0.16-100 nM, single-cycle kinetics. How it is done: as §1, §2

The target of test [6] is T3, human mesothelin (recombinant, soluble). Description: SPR BIAcore, run 4. How it is done:
as §2, with “Anti-mesothelin antibody binding affinity to mesothelin was measured by BIAcore (BIAcore T-100, GE healthcare, #1426075), using a series S CMS chip. Antibody concentrations were adjusted to 1 μg/mL and mesothelin (50 μg) to 100 nM in 1×HBS-P+ buffer (GE Healthcare). Anti-human antibody capture chip was prepared according to the manufacturer's protocol using a CMS chip with immobilization wizard. Final capture antibody levels were 8000-9000 RU, in HBS-P+. Chip was prepared for assay with five cycles of 300 sec buffer injection followed by 30 sec regeneration, all at 30 μL/min across all four flow cells. Antibodies” for “Antibodies”

For test [7] the target is unchanged. Briefly: SPR BIAcore, affinity against anetumab as reference. Here is the method: as §1, §2
Test [8] deals with cynomolgus monkey mesothelin (cynomolgus monkey). Description: SPR BIAcore T-100, captured mAb, mesothelin analyte, single-cycle kinetics. Here is the method:
as §1, §2

T3 sequence (Q13421 other isoform, or with tags, fused parts or gaps limits assumed): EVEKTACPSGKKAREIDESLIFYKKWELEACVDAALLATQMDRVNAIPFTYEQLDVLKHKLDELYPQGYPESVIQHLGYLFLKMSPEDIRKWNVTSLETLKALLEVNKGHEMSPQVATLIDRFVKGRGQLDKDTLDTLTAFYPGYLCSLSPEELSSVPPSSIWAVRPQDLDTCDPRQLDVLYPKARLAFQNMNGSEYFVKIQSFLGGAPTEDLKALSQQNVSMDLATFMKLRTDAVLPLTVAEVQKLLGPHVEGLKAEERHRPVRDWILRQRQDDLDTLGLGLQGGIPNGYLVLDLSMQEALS
T1 sequence (Q13421 other isoform, or with tags, fused parts or gaps): as the sequence (Q13421 other isoform, or with tags, fused parts or gaps limits assumed) above
Sequence of human mesothelin expressed on cells (Q13421 other isoform, or with tags, fused parts or gaps): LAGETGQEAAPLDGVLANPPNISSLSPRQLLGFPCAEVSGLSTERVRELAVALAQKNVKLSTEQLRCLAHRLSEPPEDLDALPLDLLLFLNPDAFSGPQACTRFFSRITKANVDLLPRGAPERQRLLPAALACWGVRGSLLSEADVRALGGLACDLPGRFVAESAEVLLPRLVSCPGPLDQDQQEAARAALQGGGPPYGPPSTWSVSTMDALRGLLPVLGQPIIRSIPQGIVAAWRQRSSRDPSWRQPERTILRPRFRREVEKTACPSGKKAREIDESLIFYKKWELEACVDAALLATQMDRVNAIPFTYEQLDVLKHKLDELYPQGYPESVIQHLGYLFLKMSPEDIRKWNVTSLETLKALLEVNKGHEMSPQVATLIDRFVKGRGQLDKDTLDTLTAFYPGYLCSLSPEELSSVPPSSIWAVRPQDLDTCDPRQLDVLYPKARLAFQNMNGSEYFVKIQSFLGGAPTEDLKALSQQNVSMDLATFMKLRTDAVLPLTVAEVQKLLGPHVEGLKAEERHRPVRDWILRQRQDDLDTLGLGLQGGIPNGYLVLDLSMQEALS

B1: 201C15 zu (humanized, CDR-grafted HC1-LC1) (antibody, V domains shown)
VH: QVQLVESGGGLVQPGGSLRLSCSASGIDLSSYAMGWVRQAPGKGLEYIGTINIGGRVYYASWAKGRFTISRDNSKNTLYLQMNSLRAEDTAVYYCARYYNGGSYDIWGQGTLVTVSS
VL: DIQMTQSPSTLSASVGDRVTITCQASESIYRVLAWYQQKPGKAPKLLIYDTSTLASGVPSRFSGSGSGTEFTLTISSLQCDDAATYYCQGGYYADSYGIAFGGGTKVEIKR
With B1, in test [1], the Kd came out at 4.2 nM, the koff is 0.0011 s⁻¹ and the kon was found to be 310000 M⁻¹ s⁻¹.

B2: 346C6 zu (humanized, CDR-grafted HC1-LC1) (antibody, V domains shown)
VH: EVQLVESGGGLVQPGGSLRLSCAASGFSLSSYAMIWVRQAPGKGLEWIGTISTGGITYYASWAKGRFTISRDNSKNTLYLQMNSLRAEDTAVYYCARGGYAASSAYYLPYYFDLWGQGTLVTVSS
VL: DIQMTQSPSSLSASVGDRVTITCQSSQSVYNNNNLAWYQQKPGKVPKLLIYLASTLASGVPSRFSGSGSGTDFTLTISSLQCEDAATYYCLGGCDDDADTFAFGGGTKVEIKR
On to B2, for which, in test [1], the Kd was determined as 8.9 nM, the koff was 0.093 s⁻¹ and the kon turned out to be 1.33e+07 M⁻¹ s⁻¹.

B3: 33O11 (rabbit-human chimeric anti-human mesothelin antibody) (antibody, V domains shown)
VH: QSVEESGGRLVTPGTPLTLTCTVSGISLSSDAISWVRQAPGKGLEYIGIINGGGNTYYASWAKGRFTISKTSTTVDLKITSPTTEDTATYFCARGIQHGGGNSDYYYYGMDLWGPGTLVTVSS
VL: EVLMTQTPSSVSAAVGDTVTIKCQASQSISSVLSWYQQKPGQPPKLLIYLASTLASGVPSRFSGSRSGTEFTLTISDLECDDAATYYCQTNYGTSSSNYGFAFGGGTEVVVK
Consider B3, for which, in test [2], the Kd was 0.335 nM, the koff was 0.000668 s⁻¹ and the kon stood at 1.99e+06 M⁻¹ s⁻¹.

B4: Xi-383I18(AuF) (antibody, V domains shown)
VH: SQSVEESGGRLVTPGTPLTLTCTVSGFSLSSYAMGWVRQAPGEGLEWIGTISTGGITYYASWAKGRFTISKTSTTVDLKITSPTTEDTATYFCARVGSSGYLFYFFNLWGQGTLVTVSS
VL: VFELTQTPSPVSAAVGGTVTIRCQASQNIKSYLAWYQQKPGQPPKLLIYEASILASGVSSRFKGSGSGTEFTLTISDLECADAATYYCQSYYAASSNAFGGGTEVVVK
On to B4, for which, in test [2], the Kd is 0.28 nM, the koff is 0.000281 s⁻¹ and the kon worked out at 1.01e+06 M⁻¹ s⁻¹.

B5: BAY 94-9343 (anetumab ravtansine) (antibody, human IgG1, lambda, V domains shown)
VH: QVELVQSGAEVKKPGESLKISCKGSGYSFTSYWIGWVRQAPGKGLEWMGIIDPGDSRTRYSPSFQGQVTISADKSISTAYLQWSSLKASDTAMYYCARGQLYGGTYMDGWGQGTLVTVSS
VL: DIALTQPASVSGSPGQSITISCTGTSSDIGGYNSVSWYQQHPGKAPKLMIYGVNNRPSGVSNRFSGSKSGNTASLTISGLQAEDEADYYCSSYDIESATPVFGGGTKLTVLG
modifications: SPDB-DM4 on lysines, DAR 3.7 for the whole antibody, positions not given
On to B5, for which, in test [3], the “EC50 (read off the curve): % killing of NCI-N87 cells, BAY 94-9343 alone” value is around 0.8 nM and the “EC50 (read off the curve): % killing of NCI-N87 cells, BAY 94-9343 with 3 uM unconjugated anetumab” value was around 0.8 nM.

B6: anetumab (antibody, human IgG1, lambda, V domains shown)
VH: B5 VH
VL: B5 VL
With B6, the binding result in test [4] is given as “no binding (tested: 100 nM highest analyte concentration)”. Further, in test [5], the Kd amounted to 7.26 nM, the koff was found to be 0.00112 s⁻¹ and the kon was found to be 168000 M⁻¹ s⁻¹.

B7: 345A12-HC15-LC4 (antibody, human IgG1, kappa, V domains shown)
VH: QVQLVESGGGVVQPGRSLRLSCAASGIDLSSYAMSWVRQAPGKGLEWIGVIDISGNRFYADWVKGRFTISRDNSKNTLYLQMSSLRAEDTAVYYCARVDSRAWGPFNLWGQGTLVTVSS
VL: DYQMTQSPSSLSASVGDRVTITCQASQSIFSYLAWYQQKPGKAPKLLIYDASDLASGVPSRFSGSGSGTDFTLTISSLQCEDAATYYCQQGYTRSDVDNAFGGGTKVEIKR
notes: Humanized rabbit antibody, human IgG1/kappa, unpaired Cys80 in the light chain; also called zu345A12-HC15-LC4
As for B7, the figures for the Kd in test [6], in test [8] and in test [5] were 0.0779 nM, 88.6 nM and 0.195 nM, respectively. Also, the koff in test [6] was found to be 0.000112 s⁻¹; in test [8], 0.000751 s⁻¹; in test [5], 0.000285 s⁻¹. Besides, the kon in test [6] is 1.44e+06 M⁻¹ s⁻¹; in test [8], 10500 M⁻¹ s⁻¹; in test [5], 1.46e+06 M⁻¹ s⁻¹. In addition, in test [4], the binding result is on record as “no binding (tested: 100 nM highest analyte concentration)”. The “fold higher affinity than anetumab” value in test [7] came to 40 fold.

B8: 111B10 zu (humanized, CDR-grafted HC1-LC1) (antibody, V domains shown)
VH: EVQLVESGGGLVQPGGSLRLSCAASGFSLNNYAMSWVRQAPGKGLEWIGSISTGGLAFYANWAKGRFTISRDNSKNTLYLQMNSLRAEDTAVYYCARNGGGSYIFYYFDLWGQGTLVTVSS
VL: DIQMTQSPSSLSASVGDRVTITCQASQSISSYLSWYQQKPGKAPKLLIYSASTLASGVPSRFSGSGSGTDFTLTISSLQCEDAATYYCQSYYDIGTSTFGGGTKVEIKR
For B8, in test [1], the dissociation constant (Kd) stood at 6.5 nM, the koff was 0.003 s⁻¹ and the kon worked out at 510000 M⁻¹ s⁻¹.

B9: 237N18 (rabbit-human chimeric anti-human mesothelin antibody) (antibody, V domains shown)
VH: QSLEESGGRLVAPGTPLTLTCTVSGFSLSSYHMSWVRQAPGEGLEWIGGITAMSRTYYASWAKGRFTISKTSTTVHLKITSPTTEDTATYFCAREPGFVSNIWGPGTLVTVSL
VL: AVVLTQTASPVSGVVGGTVTIKCQASQNIYSNLAWYQQKPGQRPKLLMYDASTLASGVPSRFKGSGSGTQFTLTISDLECADAATYYCQSISSVDNNVFGGGTEVVVK
Consider B9, for which, in test [2], the Kd was 3.38 nM, the koff is 0.00428 s⁻¹ and the kon came to 1.27e+06 M⁻¹ s⁻¹.

As a reminder, the Kd is the constant that tells how readily two partners part at equilibrium. As usually defined, the koff is a measure of how fast the partners let go of each other. A word on the kon: it is the rate constant with which the complex forms.
